From US8198236B2, “Methods and compositions for the treatment of cancer” (Washington University, priority 2007, dated 2012) come the findings set out here.

The target in the experiment is T1, LRP6 (Homo sapiens, UniProt O75581).
T1 construct: expressed in transfected cells; host or cells: human HT1080 cells, retroviral vector pLNCX2
In words: 125I-DKK1 binding to LRP6. The note with it: 500 nM unlabeled, 125I-DKK1 5 nM, 3 hours at 4° C. The procedure: Cells (2×10^5) were seeded into 12-well dishes 1 day prior to assay. Ligand-binding buffer (minimal Eagle's medium containing 0.6% BSA with a different concentration of radioligand, 0.6 ml/well) was added to cell monolayers, in the absence or the presence of 500 nM unlabeled RAP or 500 nM unlabeled Mesd, followed with incubation for 0-4 hours at 4° C. Thereafter, overlying buffer containing unbound ligand was removed, and cell monolayers were washed and lysed in low-SDS lysis buffer (62.5 mM Tris-HCl pH 6.8, 0.2% SDS, 10% v/glycerol) and counted.
RAP is a receptor antagonist for members of the LDLR family, and is able to inhibit the binding of most known ligands of the LDLR family members. DKK1 is an LRP6-specific ligand and antagonist. […] In these experiments, Serum-free conditioned medium was harvested from HEK293 cells transiently transfected with cDNA for human Myc-DKK1 and allowed to bind to LRP6-transduced HT1080 cells (B,C) and control cells (A) in the absence (A,B) or presence (C) of 1 μM Mesd. Cell-surface-bound Myc-tagged DKK proteins were fixed and detected by immunofluorescence staining with anti-Myc antibody. (D) DKK1 binding to cell surface LRP6 is inhibited by Mesd. Binding of 125I-DKK1 (5 nM) to LRP6-transduced HT1080 cells or the control cells was carried out for 3 hours at 4° C. in the absence (total) or presence of 500 nM RAP or 500 nM Mesd. […]

T1 sequence (O75581 20-1613): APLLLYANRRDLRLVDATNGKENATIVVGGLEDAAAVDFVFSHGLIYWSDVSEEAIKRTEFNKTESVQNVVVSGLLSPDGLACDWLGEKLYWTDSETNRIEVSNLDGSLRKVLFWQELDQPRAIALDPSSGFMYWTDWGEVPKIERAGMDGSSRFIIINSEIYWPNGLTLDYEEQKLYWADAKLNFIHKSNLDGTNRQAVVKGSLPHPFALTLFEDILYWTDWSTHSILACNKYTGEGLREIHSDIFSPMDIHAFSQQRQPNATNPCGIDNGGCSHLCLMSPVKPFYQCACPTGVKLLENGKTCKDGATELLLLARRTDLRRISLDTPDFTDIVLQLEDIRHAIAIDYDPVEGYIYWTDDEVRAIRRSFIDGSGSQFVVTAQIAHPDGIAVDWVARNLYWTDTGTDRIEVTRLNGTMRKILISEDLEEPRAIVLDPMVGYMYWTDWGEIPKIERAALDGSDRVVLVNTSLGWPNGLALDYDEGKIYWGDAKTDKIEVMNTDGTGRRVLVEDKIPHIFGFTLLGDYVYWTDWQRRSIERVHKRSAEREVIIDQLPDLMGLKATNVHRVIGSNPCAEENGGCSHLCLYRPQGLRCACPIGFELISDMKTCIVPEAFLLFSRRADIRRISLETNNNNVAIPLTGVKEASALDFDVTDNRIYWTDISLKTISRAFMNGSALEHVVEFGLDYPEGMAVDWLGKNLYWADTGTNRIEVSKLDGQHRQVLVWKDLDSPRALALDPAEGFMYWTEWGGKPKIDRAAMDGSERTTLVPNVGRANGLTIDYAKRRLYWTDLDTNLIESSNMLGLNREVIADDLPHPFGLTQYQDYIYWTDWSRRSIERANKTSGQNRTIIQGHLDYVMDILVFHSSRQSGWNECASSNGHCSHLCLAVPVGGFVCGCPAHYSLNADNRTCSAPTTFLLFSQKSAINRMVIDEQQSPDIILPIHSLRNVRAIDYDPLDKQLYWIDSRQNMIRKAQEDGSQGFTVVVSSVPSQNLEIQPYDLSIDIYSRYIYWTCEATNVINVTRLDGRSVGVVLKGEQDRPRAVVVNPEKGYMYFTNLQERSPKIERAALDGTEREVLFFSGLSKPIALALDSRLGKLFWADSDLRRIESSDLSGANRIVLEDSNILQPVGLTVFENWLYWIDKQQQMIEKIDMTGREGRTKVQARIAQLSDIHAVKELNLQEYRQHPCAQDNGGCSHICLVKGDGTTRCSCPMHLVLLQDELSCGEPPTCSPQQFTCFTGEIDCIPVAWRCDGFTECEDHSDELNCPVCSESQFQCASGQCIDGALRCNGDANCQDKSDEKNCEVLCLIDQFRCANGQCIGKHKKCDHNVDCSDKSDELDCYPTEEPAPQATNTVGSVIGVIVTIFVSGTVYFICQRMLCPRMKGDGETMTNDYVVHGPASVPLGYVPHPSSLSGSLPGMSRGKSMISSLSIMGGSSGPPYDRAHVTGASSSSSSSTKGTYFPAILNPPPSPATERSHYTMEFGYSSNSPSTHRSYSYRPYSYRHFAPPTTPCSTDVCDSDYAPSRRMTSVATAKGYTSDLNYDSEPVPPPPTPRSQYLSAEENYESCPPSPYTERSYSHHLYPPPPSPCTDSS

B1: Mesd: Recombinant full-length mouse Mesd expressed in E. coli, N-terminal polyhistidine tail, lacking the signal peptide (protein)
chain: ADTPGEATPPPRKKKDIRDYNDADMARLLEQWEKDDDIEEGDLPEHKRPSAPIDFSKLDPGKPESILKMTKKGKTLMMFVTVSGNPTEKETEEITSLWQGSLFNANYDVQRFIVGSDRAIFMLRDGSYAWEIKDFLVSQDRCAEVTLEGQMYPGKGGGSKEKNKTKPEKAKKKEGDRKPRASKEDNRAGSRREDL
modifications: left off: small tags and cut ends
notes: Recombinant full-length mouse Mesd expressed in E. coli, N-terminal polyhistidine tail, lacking the signal peptide
For the molecule B1, the “Effect on increased 125I-DKK1 binding of LRP6-expressing HT1080 cells” value is “abolished”.
